Data reported in US20130108549A1 (ADLYFE, published 2013).
pyrene = pyrene fluorescent label

Biological target: Aβ42 fibers (Homo sapiens (Human), UniProt P05067 672-713)
Assay: pyrene excimer fluorescence (FIG. 11A legend)

Sequence of Aβ42 fibers (P05067 672-713 limits assumed): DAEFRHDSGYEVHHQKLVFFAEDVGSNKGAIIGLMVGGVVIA

B1: Peptide probe specific for Aβ (SEQ ID NO:36) labeled at each terminus with pyrene (peptide)
peptide: pyrene-KLVFFAEDVGSNKGAIIGLM-pyrene
notes: also called Aβ peptide probe; dipyrene labeled peptide probe
B1: binds.
